B1: HDV Ribozyme (parent)
chain: GGCCGGCAUGGUCCCAGCCUCCUCGCUGGCGCCGGCUGGGCAACAUUCCGAGGGGACCGUCCCCUCGGUAAUGGCGAAUGGGACCCA

Experimental findings from the RNAGym collection of RNA variant scans (doi:10.7554/elife.80360) are described below.

In this data set the parent is B1. Kind of data set: self-cleavage, relative activity (ratio to wild type); higher = more cleavage; co-transcriptional.
Regarding U47G G80U, the self-cleavage was 0.163.
Under U47G G80C stands 0.192; under U47G G80A, 0.242; under C48A C63A, 0.816.
Under U47C U72C stands 0.712; under U46G G52C, 0.429; under U46G A78C, 0.277.
On to U46A G73U, for which the self-cleavage amounted to 0.0811.
Consider U47A G55U, for which the self-cleavage stood at 1.01.
Under U47A G55A stands 0.927; under U46G G55A, 0.649; under U46G G55C, 0.98.
The same measure for U47C G81U: 0.443.
As to U47C G81A, the self-cleavage was 0.332.
U46G C62U: the self-cleavage was determined as 0.811.
Under U46G C85U stands 0.831; under U46G C85A, 0.831; under U47G C75G, 0.317.
On to U46G U60A, for which the self-cleavage is 0.453.
Consider U46G U60G, for which the self-cleavage amounted to 0.415.
For U47C G54A, the self-cleavage is 1.04.
As to U47C G54C, the self-cleavage came out at 0.554.
As to U46G C75U, the self-cleavage was determined as 0.107.
Turning to U46C G68A, the self-cleavage is 0.415.
Regarding U46C G74A, the self-cleavage is 0.48.
Under U46C G74U stands 0.554.
Under U47G A70G stands 1.01; under U47A A56U, 0.856.
Regarding U47A A56C, the self-cleavage came to 0.782.
The same measure for U47G A87G: 1.16.
Turning to U47G A87C, the self-cleavage is 1.05.
Take U46G U72C: the self-cleavage worked out at 0.287.
The same measure for U46C G59U: 0.962.
Regarding U46C G59A, the self-cleavage was 0.776.
For U46A G74C, the self-cleavage was found to be 0.297.
Take U46A U65A: the self-cleavage is 0.914.
For U46A U65G, the self-cleavage was 0.675.
As to U46A U65C, the self-cleavage is 0.65.
Under U46C G76A stands 1.01.
With C48A C58A, the self-cleavage amounted to 0.831.
As for C48A C58G, the self-cleavage was 1.12.
Take U46G U65G: the self-cleavage turned out to be 0.712.
With U46G U65A, the self-cleavage was 0.582.
Regarding U46G C84U, the self-cleavage amounted to 0.287.
Consider U46G C84G, for which the self-cleavage turned out to be 0.185.
As to U47G C61A, the self-cleavage was 1.2.
As to U47G U72A, the self-cleavage turned out to be 0.831.
As to U47G U72C, the self-cleavage is 0.554.
The same measure for U46C G67U: 0.831; for U46C G67C: 0.469; for U46C A51U: 0.846.
For the variant U46C A51G, the self-cleavage worked out at 0.639.
In the case of U46C A51C, the self-cleavage came out at 0.504.
The same measure for C48A C57A: 0.978; for C48A C57U: 0.76.
Regarding U47C C86A, the self-cleavage was found to be 0.806.
In the case of U46G G67C, the self-cleavage was 0.208.
Regarding U46C C57U, the self-cleavage worked out at 0.705.
Take U47G G59C: the self-cleavage is 1.16.
Consider C48A C66G, for which the self-cleavage is 0.831.
For the variant U47A C61G, the self-cleavage is 0.639.
Turning to U46C A71C, the self-cleavage is 0.772.
For the variant U46C A71U, the self-cleavage was determined as 0.767.
The same measure for U46C A71G: 1.2.
On to U47A G67U, for which the self-cleavage was found to be 1.14.
On to U47A G67A, for which the self-cleavage amounted to 0.897.
On to U47C G67U, for which the self-cleavage came out at 0.892.
In the case of U47C G67C, the self-cleavage stood at 0.59.
In the case of U47G A71C, the self-cleavage worked out at 0.959.
For U46C C66U, the self-cleavage was 0.886.
For U47C G74A, the self-cleavage was determined as 0.233.
Take U46G G81C: the self-cleavage stood at 0.175.
On to U46G G81A, for which the self-cleavage amounted to 0.222.
The same measure for U47G C86U: 1.11.
Under U47G C84U stands 0.346.
Take U47A C64A: the self-cleavage came to 1.08.
For U47A C64G, the self-cleavage stood at 0.978.
Turning to U46C A78U, the self-cleavage turned out to be 0.302.
With U47C C85A, the self-cleavage was 0.587.
U46G A83C: the self-cleavage was found to be 0.293.
In the case of U46G A83U, the self-cleavage was found to be 0.
For the variant U46G U69G, the self-cleavage worked out at 0.776.
With U46G U69A, the self-cleavage amounted to 0.665.
Under C48A C64A stands 0.867; under C48A C64G, 0.786.
With U46A U69C, the self-cleavage is 0.779.
Turning to U47A A51G, the self-cleavage was 0.902.
As for U47A A51U, the self-cleavage was 1.03.
In the case of U47A A51C, the self-cleavage was 1.13.
As for U47A G74U, the self-cleavage was 0.447.
The same measure for U47A G74A: 0.688; for U47G C48A: 0.798; for U47G C48U: 1.02.
Under U46C A87U stands 0.689; under U46C A87C, 0.91.
Take U47G U69C: the self-cleavage worked out at 0.727.
For U47A A83C, the self-cleavage was determined as 0.391.
Consider U47A A83U, for which the self-cleavage came out at 0.287.
U46C C58A: the self-cleavage came out at 0.554.
For the variant U47A G50A, the self-cleavage amounted to 0.876.
U46G A71C: the self-cleavage was 0.982.
For the variant U46G A71G, the self-cleavage turned out to be 0.772.
Under U47G G54A stands 1.18; under U47G G54U, 1.07.
U47A C57A: the self-cleavage was 1.02.
As for C48A A56G, the self-cleavage was 1.2.
Turning to U47C C61G, the self-cleavage was 0.65.
Regarding U47C C61A, the self-cleavage turned out to be 0.872.
For U47C G82U, the self-cleavage stood at 0.111.
Take U47C G82C: the self-cleavage was determined as 0.185.
For U47C G82A, the self-cleavage was found to be 0.401.
With U47C A70G, the self-cleavage stood at 1.08.
Under U47C A70U stands 0.864; under U47A A87C, 0.95; under U47A A87U, 1.03.
Under U47A A87G stands 0.96; under U47G C63A, 1.06.
Regarding U47A C58A, the self-cleavage was 0.957.
For the variant U47A C58G, the self-cleavage was 0.855.
On to U47A C58U, for which the self-cleavage was 1.03.
For U47A A78C, the self-cleavage was 0.147.
In the case of U47G G53C, the self-cleavage came to 1.19.
For the variant U47G G53A, the self-cleavage was determined as 1.15.
For the variant U47A C48G, the self-cleavage amounted to 0.598.
As for U46C C75G, the self-cleavage came to 0.469.
With U46A U60A, the self-cleavage amounted to 0.751.
In the case of U47A G82C, the self-cleavage was 0.489.
As to U46C G52U, the self-cleavage worked out at 1.05.
For U47C A51C, the self-cleavage was found to be 0.776.
On to U47C A51U, for which the self-cleavage was determined as 0.831.
For U47C A56C, the self-cleavage amounted to 0.831.
For the variant U47C A56U, the self-cleavage was 0.942.
For U46A G81A, the self-cleavage amounted to 0.271.
On to U47C C64U, for which the self-cleavage was found to be 0.692.
As for U46C U60G, the self-cleavage stood at 0.755.
In the case of U46C U60A, the self-cleavage came out at 0.674.
Under U46G C63G stands 0.293; under U46G C63A, 0.415; under U46A G80C, 0.0831.
Turning to U46G C66U, the self-cleavage stood at 0.673.
In the case of U47A A70U, the self-cleavage was 0.697.
Regarding U47A A70G, the self-cleavage stood at 0.831.
On to U47A A70C, for which the self-cleavage was 0.957.
With C48A C62G, the self-cleavage was 0.359.
Regarding C48A C61U, the self-cleavage is 0.911.
The same measure for C48A C61G: 1.03; for U46C C64G: 0.875; for U46C C64U: 0.725.
For the variant U47A U79G, the self-cleavage was 0.895.
Under U46G C57A stands 0.635; under U46G C57U, 0.86; under U47C C57U, 0.712.
Consider U46G G68U, for which the self-cleavage was found to be 0.554.
Under U46G G68C stands 0.396.
Consider U47G C66G, for which the self-cleavage was determined as 0.831.
The same measure for U47G C66U: 1.23; for U46G A70U: 0.997.
As to U46G A70C, the self-cleavage is 0.665.
In the case of U46G A70G, the self-cleavage stood at 0.511.
Regarding U46C U69C, the self-cleavage came out at 1.12.
In the case of U47C G59A, the self-cleavage was determined as 0.954.
The same measure for U47G G82A: 0.59; for U47G G82U: 0.123.
Turning to U47G A78U, the self-cleavage stood at 0.196.
Under U47G A78C stands 0.185.
Consider U46C C62U, for which the self-cleavage was 0.918.
With U46C C62A, the self-cleavage came out at 0.623.
